{
  "source": "patent US8252764B2",
  "about": "“Compositions and methods of use of targeting peptides against placenta and adipose tissues” (priority 2000, dated 2012)",
  "molecules": {"B1": {"name": "Fab clone #6: chicken anti-mouse spleen Fab phage clone selected by BRASIL (protein)", "chain": "CQPAMAAVTLDESGGGLQTPGGTLSLVCKASGISIGYGMNWVRQAPGKGLEYVASISGDGNFAHYGAPVKGRATISRDDGQNTVTLQLNNLR"}, "B2": {"name": "Fab clone #12: chicken anti-mouse spleen Fab phage clone selected by BRASIL (protein)", "chain": "ANQPWPPLTLDESGGGLQTPGGALSLVCKASGFTMSSYDMFWVRQAPGKGLEFVAGISSSGSSTEYGAAVKGRATISRDNGQSTVRLQLNNLRAED"}, "B3": {"name": "Fab clone #2: chicken anti-mouse spleen Fab phage clone selected by BRASIL (protein)", "chain": "CQPAMAAVTLDESGGGLQTPGGALSLVCKASGFTFNSYPMGWVRQAPGKGLEWVAVISSSGTTWYAPAVKGRATISRDNGQSTVRLQLSNLRAED"}},
  "key": {"placenta [1]": {"tested_on": "placenta", "excerpt": "The CARAC peptide (SEQ ID NO:12), an adipose targeting peptide (FE, TREVHRS, SEQ ID NO:13) or fd-tet phage were used as non-placental targeting controls."}, "[2]": {"tested_on": "white adipose vasculature", "assay": "Peptide localization in white fat", "format": "in vivo, mouse", "conditions": "intravenous", "description": "(A) and (B) Anti-phage immunohistochemistry in paraffin sections of subcutaneous white fat from leptin-deficient mice intravenously injected 6 hr prior to tissue processing. (C) and (D) Peptide-FITC immunofluorescence in paraffin sections of subcutaneous white fat from leptin-deficient mice intravenously injected 6 hr prior to tissue processing. […] (SEQ ID NO:22) linked to FITC peptide, or (D) control. CARAC (SEQ ID NO:12) linked to FITC peptide. […] Bar: 10 μm.\n(A), (C) and (E) Peptide-FITC immunofluorescence or (B), (D) and (F) lectin-rhodamine immunofluorescence in blood vessels of (A), (B), (E) and (F) subcutaneous white fat or (C) and (D) pancreas controls detected in paraffin-sectioned tissues from c57bl/6 mice intravenously co-injected 5 min prior to tissue processing. […] (SEQ ID NO:22) linked to FITC peptide and lectin-rhodamine; or (E) and (F) control CARAC (SEQ ID NO:12) linked to FITC peptide and lectin-rhodamine; (B), (D) and (F) Arrows show endothelium marked with lectin. […] Bar: 10 μm.\nStaining of formalin-fixed, paraffin-embedded mouse tissue sections was performed (Pasqualini & Rouslahti, 1996; Pasqualini et al., 2000). For phage-peptide immunolocalization, 10^10 TU of [sequence] […] Apoptosis was detected using standard TUNEL immunohistochemistry and an HRP-conjugated antibody. […]"}, "[3]": {"tested_on": "mouse villous yolk sac (vys)", "assay": "Peptide localization in placenta (immunohistochemistry, FITC immunofluorescence)", "format": "in vivo", "conditions": "18 dpc pregnant mice, intravenous, 6 h", "protocol": "Fusion and Recombinant Peptides Carboxyfluorescein (FITC)-conjugated [sequence] […] The FITC-peptide stocks were made by dissolving lyophilized peptides in DMSO to a concentration of 20 mM, after which the peptides were diluted to 1 mM with PBS (phosphate buffered saline) and aliquots were frozen until use. The [sequence] (SEQ ID NO:144) peptide and an unrelated control peptide, [sequence] (SEQ ID NO:87), fused in-frame with GST at the amino-terminus were purified to approximately 90% purity using the BugBuster GST Bind Kit (Novagen, Madison, Wis.). Purified peptides were buffer-exchanged into PBS using Centricon PL-10 columns (Millipore, Bedford, Mass.) and the aliquots were frozen until use. […]\nPeptide Localization in Tissues Immunohistochemistry on sections of formalin-fixed, paraffin-embedded mouse tissue was performed as described (Pasqualini et al., 2000; Pasqualini and Ruoslahti, 1996): For phage-peptide immunolocalization, a rabbit anti-fd phage antibody (Sigma Chemicals, St. Louis, Mo.) was used at 1:1,000 dilution and detected with a secondary horseradish peroxidase (HRP)-conjugated antibody. For GST-peptide immunolocalization, a goat anti-GST antibody (Amersham, Piscataway, N.J.) was used at 1:1,000 dilution and detected with a secondary alkaline phosphatase (AP)-conjugated antibody. […]"}, "[4]": {"tested_on": "MDA-MB-435-derived tumor xenografts", "assay": "In vivo tumor homing of APA-binding phage", "parameters": "species or system mouse", "method": "FIG. 31. APA-binding phage specifically bind tumors. Equal amounts of phage were injected into the tail veins of mice bearing MDA-MB-435-derived tumors and phage were recovered after perfusion. Mean values for phage recovered from the tumor or control tissue (brain) and the standard error from triplicate platings are shown.\nMDA-MB-435-derived tumor xenografts were established in female nude mice 2 months old (Jackson Labs, Bar Harbor, Me.). Mice were anesthetized with Avertin and injected intravenously through the tail vein with 10^9 TU of the phage in a 200 μl volume of DMEM. The phage were allowed to circulate for 5 min, and the animals were perfused through the heart with 5 ml of DMEM. The tumor and brain were dissected from each mouse, weighed, and equal amounts of tissue were homogenized. The tissue homogenates were washed three times with ice-cold DMEM containing a proteinase inhibitor cocktail and 0.1% BSA. Bound phage were rescued and counted as described for cell panning. Fd-tet phage was injected at the same input as a control. The experiment was repeated twice. In parallel, part of the same tissue samples were fixed in Bouin solution, and imbedded in paraffin for preparation of tissue sections. An antibody to M-13 phage (Amersham-Pharmacia) was used for the staining."}, "HUVEC cells": {"tested_on": "HUVEC cells", "assay": "Apoptosis assay in HUVEC (propidium iodide, chromatin fragmentation)", "format": "cell-based, human", "conditions": "10^6 HUVEC, 15 μM, 2-4 hours", "method": "FIG. 26. Penetratin peptide chimera binding to the β5 cytoplasmic domain induces programmed cell death. 10^6 HUVEC cells were harvested in complete media and 15 μM penetratin peptide chimeras were added to the cells. […] (a) Profile obtained with starved cells after 24 h. (b) Confluent cells in complete media. (c) 15 μM of penetratin after four hours. (d) 15 μM of VISY-penetratin chimera after four hours.\nFIG. 30. Chimeric peptide containing VISY peptide linked to penetratin (antennapedia) induces apoptosis. VISY induced apoptosis was inhibited by addition of a caspase inhibitor (zVAD).\nApproximately 1×10^6 cells were harvested in complete media and 15 AM of peptide added for 4, 8, or 12 h. The cellswere then washed in PBS and resuspended in 0.5 ml propidium iodide solution (50 μg/ml PI, 0.1% Triton X-100, 0.1% sodium citrate). After a 24-h incubation at 4° C., cells were counted with a XL Coulter (Coulter Corporation) with a 488-nm laser; 12,000 cells were counted for each histogram, and cell cycle distributions were analyzed with Multicycle program.\nApproximately 1×10^6 cells were harvested in complete medium, and 15 μM of peptide was added for 4, 8, or 12 hours. The cells were then washed in PBS and resuspended in 0.5 ml propidium iodide solution (50 μg/ml PI, 0.1% Triton X-100, 0.1% sodium citrate). After a 24-h incubation at 4° C., the cells were counted with an XL Coulter (Coulter Corporation) with a 488 nm laser; 12,000 cells were counted for each histogram, and cell cycle distributions were analyzed with the Multicycle program.\n10^6 HUVEC were treated with 15 μM of VISY antennapedia (penetratin) chimera or 15 μM of antennapedia peptide (pentratin) alone for 2-4 hours and chromatin fragmentation was analyzed by electrophoresis in an agarose gel."}, "β5 integrin": {"biological_target": "T1, β5 integrin (Homo sapiens, UniProt P18084)", "T1 construct": "Plates were coated with GST fusion proteins of the cytoplasmic domains of various integrins", "T1 sequence (P18084 743-799 limits assumed)": "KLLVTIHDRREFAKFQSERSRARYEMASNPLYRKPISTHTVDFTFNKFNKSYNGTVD", "assay": "Annexin V binding to GST-β5 integrin cytoplasmic domain (ELISA, competition)", "method": "FIG. 29A. Competitive binding of Annexin V to β5 integrin with VISY peptide. Binding assays were performed by ELISA.\nCompetitive binding assays were performed to examine the binding of Annexin V to β5 integrin and the effect of the VISY peptide. Plates were coated with GST fusion proteins of the cytoplasmic domains of various integrins and Annexin V was added to the plates. Binding of Annexin V was determined using anti-Annexin V antibodies. […] Calcium was used because Annexin V activity has been reported to be modulated by calcium. Binding of Annexin V to GST-β5 was blocked by addition of the VISY peptide (FIG. 29A).\nA reciprocal study was performed, using Annexin V to coat plates and adding GST fusion proteins of integrin cytoplasmic domains. Binding was assessed using anti-GST fusion protein antibodies. […] In some studies, calcium ion appeared to interfere with the binding interaction between GST-β5 and Annexin V, with decreased binding observed in the presence of calcium (not shown)."}, "placenta [5]": {"tested_on": "placenta", "assay": "Peptide embryotoxicity in pregnant mice", "format": "in vivo, mouse", "excerpt": "FIG. 7. TPKTSVT (SEQ ID NO:5) peptide inhibits mouse pregnancy and is teratogenic. (A) Pregnancy courses (representative from 5 independent experiments) in mice subcutaneously injected with the indicated phage or peptides were monitored by daily weighing of the mice upon each injection (arrows). (B) Appearance of a normally developed 20 dpc embryo (left) for control GST fusion treatment compared to a representative 20 dpc embryo (right) resulting from TPKTSVT (SEQ ID NO:5) linked to GST fusion treatment. A severely teratogenic phenotype is observed with the placental targeting fusion peptide. (C) and […]) Hematoxylin/eosin staining of 20 dpc paraffin-embedded placentas derived from mice injected for 7 days with (C) control GST fusion or (D) the TPKTSVT (SEQ ID NO:5) linked to GST fusion peptide. Note hemorrhage (black asterisks), necrosis (white asterisks), and fibrosis (arrowheads). Bar: 500 μm (50 μm for insets).\nPeptide Embryotoxicity For peptide embryotoxicity studies, agents were injected at the following daily doses: GST-peptides 0.1 mg (˜3 nMoles), FITC-peptides 50 μg (˜30 nMoles),and phage-peptides 10″ TU. All agents were dissolved in PBS. Mice were injected subcutaneously in the back (5-10 injections per course).\nThe phage or fusion peptides were subcutaneously injected and the progression of pregnancy was compared with mice injected with control phage, control peptides, or saline. Multiple injections of the TPKTSVT (SEQ ID NO:5) peptide were administered, starting at mid-pregnancy (˜12 days postconception, dpc) in doses non-toxic to the mother."}, "placental transporter": {"tested_on": "placental transporter", "assay": "Phage recovery from embryos (materno-fetal transfer)", "format": "in vivo, mouse", "conditions": "excess of co-injected peptide", "method": "FIG. 4. The TPKTSVT (SEQ ID NO:5) peptide specifically binds a placental transporter. (A) Recovery of indicated phage from embryos carried by 18 dpc pregnant mice intravenously injected (tail vein) with 10^10 TU of the indicated phage 6 h prior to phage recovery or immunohistochemistry. […] TPKTSVT (SEQ ID NO:5) phage were administered alone (dark cross-hatched) or co-administered with control-GST (black) or TPKTSVT (SEQ ID NO:5) linked to GST (white bar). Shown are mean+/−SEM (standard error) from different embryos. (B-D) Anti-phage IMP immunohistochemistry (arrowheads) in paraffin sections of the vys from the corresponding mice, as indicated. Asterisks mark embryonic capillaries. Bar: 20 μm.\nPhage Recovery Mouse placentas and embryonic livers were individually weighed, ground with a glass Dounce homogenizer and suspended in 1 ml of Dulbecco's Modified Eagle's Medium (DMEM) containing proteinase inhibitors (DMEM-prin—1 mM PMSF, 20 μg/ml aprotinin, and 1 μg/ml leupeptin). The suspension was vortexed and washed three times with DMEM-prin. […]\nThe TPKTSVT (SEQ ID NO:5) Peptide Binds to a Placental Transporter The TPKTSVT (SEQ ID NO:5) peptide localizes to the vys (FIG. 3), which is the tissue primarily responsible for materno-fetal transport in mice. […] Either TPKTSVT (SEQ ID NO:5)-phage or control phage were injected into pregnant mice and the recovery of phage from embryos was determined."}, "mouse spleen": {"tested_on": "mouse spleen", "assay": "Testing Fab clones in vivo with BRASIL", "conditions": "5 minutes circulation"}, "mouse spleen cells": {"tested_on": "mouse spleen cells", "assay": "Testing Fab clones in vitro using BRASIL", "format": "cell-based", "conditions": "for binding to mouse spleen cells compared to Fd-tet control: BRASIL, FIG. 13; for binding to mouse spleen cells compared to NPC-3TT: FIG. 14", "method": "FIG. 13. Spleen targeting in vitro using BRASIL. Binding of Fab clones #2, #6, #10, #12 and control Fab clone NPC-3TT were directly compared to each other.\nA singe cell suspension was prepared from two mouse spleens. The suspension was divided into five tubes and incubated on ice with 3×10^9 TU of Fab clones #2, #6, #10, #12 and 2×10^9 TU tet-phage. Phage bound to mouse spleen cells were recovered by BRASIL. 200 μl of log phase ER2537 E.coli was infected with the pellet and serial dilutions were plated on LB/carbenicillin and LB/tetracycline plates for assessment of phage binding. Fd-tet was used as an internal control to normalize all the phage homing experiments."}, "[6]": {"conditions": "FITC conjugates-I, 1 mouse iv (predominantly) or ip ~every other day, day 1-day 18, 9 times, Total 450 mM (~450 μg)"}, "[7]": {"conditions": "FITC conjugates-II, 1 mouse sc (predominantly) or iv ~every other day, day 4-day 17, 10 times, Total 1M (~1 mg)"}},
  "note": "Like-named read-outs stand apart in the source and are kept apart here.",
  "data": [
    {"molecule": "CARAC-FITC: FITC-conjugated control peptide CARAC (SEQ ID NO:12)", "values": [
      {"measurement": "Peptide Effect on Embryo", "setting": "placenta [1]; [6]", "result": "No effect"},
      {"measurement": "Pregnancy Outcome", "setting": "placenta [1]; [6]", "result": "Delivery: 18 d, 5 normal pups"},
      {"measurement": "Peptide Effect on Embryo", "setting": "placenta [1]; [7]", "result": "Slight toxicity?"},
      {"measurement": "Pregnancy Outcome", "setting": "placenta [1]; [7]", "result": "Delivery: 20 d, 5 pups, 1-dead"},
      {"measurement": "localization in white fat of wild-type mice", "setting": "[2]; C57BL/6 (leptin+/+) mice, co-injected lectin-rhodamine", "result": "not detectable in white fat vasculature"},
      {"measurement": "localization in white fat of ob/ob mice", "setting": "[2]; leptin-deficient mice", "result": "undetectable in adipose tissue"},
      {"measurement": "localization in placenta", "setting": "[3]", "result": "not detectable in the placenta"}
    ]},
    {"molecule": "CPKVCPRECESNC", "values": [
      {"measurement": "anti-M13 immunostaining on tissue sections", "setting": "[4]; not shown", "result": "Strong phage staining was apparent in tumor vasculature but not in normal vasculature"},
      {"measurement": "phage enrichment in tumor xenografts compared to brain tissue", "setting": "[4]; nude mice, 10^9 TU iv, 5 min", "result": 4, "unit": "fold"}
    ]},
    {"molecule": "VVISYSMPD", "values": [
      {"measurement": "induction of apoptosis (chromatin fragmentation)", "setting": "HUVEC cells", "result": "Neither VISY nor penetratin alone induced apoptosis"},
      {"measurement": "inhibition of Annexin V binding to GST-β5", "setting": "β5 integrin; in the absence of calcium", "result": 45, "unit": "%"},
      {"measurement": "inhibition of Annexin V binding to GST-β5", "setting": "β5 integrin; in the presence of calcium", "result": 67, "unit": "%"}
    ]},
    {"molecule": "TPKTSVT [placenta targeting peptide]", "values": [
      {"measurement": "toxicity to the mother", "setting": "placenta [5]; data not shown", "result": "no signs of peptide toxicity to the mother were observed"},
      {"measurement": "histopathological examination of the placentas", "setting": "placenta [5]; seven days of peptide administration", "result": "massive dilation of blood vessels and intraplacental bleeding, as well as widespread hemorrhagic necrosis"},
      {"measurement": "effect on materno-fetal transfer / vys uptake of TPKTSVT-phage on co-injection", "setting": "placental transporter", "result": "blocked"}
    ]},
    {"molecule": "B1", "values": [
      {"measurement": "binding / localization to spleen compared to Fd-tet phage", "setting": "mouse spleen", "result": "many-fold increased binding to spleen"},
      {"measurement": "binding to mouse spleen cells compared to Fd-tet control", "setting": "mouse spleen cells", "result": "lowest degree of binding"},
      {"measurement": "binding to mouse spleen cells compared to NPC-3TT", "setting": "mouse spleen cells", "result": "only slightly higher than the binding of phage NPC-3TT"}
    ]},
    {"molecule": "B2", "values": [
      {"measurement": "binding / localization to spleen compared to Fd-tet phage", "setting": "mouse spleen", "result": "did not exhibit significantly elevated binding to mouse spleen"},
      {"measurement": "binding to mouse spleen cells compared to Fd-tet control", "setting": "mouse spleen cells", "result": "selective binding to mouse spleen cells"},
      {"measurement": "binding to mouse spleen cells compared to NPC-3TT", "setting": "mouse spleen cells", "result": "only slightly higher than the binding of phage NPC-3TT"}
    ]},
    {"molecule": "B3", "values": [
      {"measurement": "binding / localization to spleen compared to Fd-tet phage", "setting": "mouse spleen", "result": "many-fold increased binding to spleen"},
      {"measurement": "binding to mouse spleen cells compared to Fd-tet control", "setting": "mouse spleen cells", "result": "at least a two-fold increased binding"},
      {"measurement": "binding to mouse spleen cells compared to NPC-3TT", "setting": "mouse spleen cells", "result": "highest levels of binding to mouse spleen cells"}
    ]}
  ]
}
